Experimental data published in patent US20240116985A1 (published 2024).
Starred links: 1 amine or outer side, 2 acyl side, 3 side chain; linkers in the order of their positions; H or OH if unused. Positions of bridges follow the written chain, without caps; N, C: chain ends. Non-standard residues stand in square brackets, D forms with d. Primed or numbered codes have the meaning given here. *: point of attachment. PyrS2″ = (S)-3-amino-1-((pent-4-en-1-yloxy)carbonyl)pyrrolidine-3-carboxylic acid (stapling residue), C=CCCCOC(=O)N1CC[C@@](N[*:1])(C(=O)[*:2])C1; B5(4) = 2,2-bis(4-pentenyl)glycine = 2-amino-2-(pent-4-en-1-yl)hept-6-enoic acid (stitching residue), C=CCCCC(CCCC=C)(N[*:1])C(=O)[*:2]; B5(5) = 2,2-bis(4-pentenyl)glycine, 2-amino-2-(pent-4-en-1-yl)hept-6-enoic acid (stitching residue), C=CCCCC(CCCC=C)(N[*:1])C(=O)[*:2]; B5(33) = 2-amino-2-(pent-4-en-1-yl)hept-6-enoic acid (bis-pentenylglycine, two olefin side chains), C=CCCCC(CCCC=C)(N[*:1])C(=O)[*:2]; PyrS2 = (S)-3-amino-1-((pent-4-en-1-yloxy)carbonyl)pyrrolidine-3-carboxylic acid, C=CCCCOC(=O)N1CC[C@@](N[*:1])(C(=O)[*:2])C1; Phe(3-COOH) = N[C@@H](Cc1cccc(C(=O)O)c1)C(=O)O; Phe(2-CF3) = N[C@@H](Cc1ccccc1C(F)(F)F)C(=O)O; Phe(2-Cl) = N[C@@H](Cc1ccccc1Cl)C(=O)O; 2Nal = N[C@@H](Cc1ccc2ccccc2c1)C(=O)O; Bta = N[C@@H](Cc1csc2ccccc12)C(=O)O; Lys(iPr) = CC(C)NCCCC[C@H](N)C(=O)O; αAllylPro = C=CC[C@@]1(C(=O)O)CCCN1; tBuAla = CC(C)(C)C[C@H](N)C(=O)O; 3Thi = N[C@@H](Cc1ccsc1)C(=O)O; Cha = N[C@@H](CC1CCCCC1)C(=O)O; Propanoyl(3-OMe) = COCCC(=O)*; Ms = CS(=O)(=O)*

T1: B-cat-Halo (UniProt P35222 1-781)
T1 sequence (looked up): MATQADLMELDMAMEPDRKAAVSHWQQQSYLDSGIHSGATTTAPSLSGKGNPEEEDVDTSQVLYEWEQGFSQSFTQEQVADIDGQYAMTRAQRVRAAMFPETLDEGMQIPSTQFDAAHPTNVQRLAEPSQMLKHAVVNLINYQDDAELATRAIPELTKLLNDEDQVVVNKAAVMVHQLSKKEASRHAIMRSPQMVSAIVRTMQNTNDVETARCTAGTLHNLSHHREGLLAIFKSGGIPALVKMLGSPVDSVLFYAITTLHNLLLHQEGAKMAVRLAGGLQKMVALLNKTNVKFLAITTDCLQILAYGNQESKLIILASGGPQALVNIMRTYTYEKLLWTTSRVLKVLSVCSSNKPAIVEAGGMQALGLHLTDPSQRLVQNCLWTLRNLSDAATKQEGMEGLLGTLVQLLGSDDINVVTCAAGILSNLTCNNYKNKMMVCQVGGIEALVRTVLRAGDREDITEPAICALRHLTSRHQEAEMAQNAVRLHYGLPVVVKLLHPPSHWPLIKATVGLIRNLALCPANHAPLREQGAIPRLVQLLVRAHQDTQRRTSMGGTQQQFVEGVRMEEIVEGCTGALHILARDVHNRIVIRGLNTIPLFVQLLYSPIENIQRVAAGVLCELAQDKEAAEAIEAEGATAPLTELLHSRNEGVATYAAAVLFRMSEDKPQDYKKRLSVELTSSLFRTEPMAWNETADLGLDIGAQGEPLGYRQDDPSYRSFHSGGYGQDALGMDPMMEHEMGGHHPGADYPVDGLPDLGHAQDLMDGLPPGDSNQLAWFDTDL

T2: B-cat-Halo (beta-catenin HaloTag fusion expressed in HEK293 cells) (Homo sapiens (Human), UniProt P35222 1-781)
T2 sequence: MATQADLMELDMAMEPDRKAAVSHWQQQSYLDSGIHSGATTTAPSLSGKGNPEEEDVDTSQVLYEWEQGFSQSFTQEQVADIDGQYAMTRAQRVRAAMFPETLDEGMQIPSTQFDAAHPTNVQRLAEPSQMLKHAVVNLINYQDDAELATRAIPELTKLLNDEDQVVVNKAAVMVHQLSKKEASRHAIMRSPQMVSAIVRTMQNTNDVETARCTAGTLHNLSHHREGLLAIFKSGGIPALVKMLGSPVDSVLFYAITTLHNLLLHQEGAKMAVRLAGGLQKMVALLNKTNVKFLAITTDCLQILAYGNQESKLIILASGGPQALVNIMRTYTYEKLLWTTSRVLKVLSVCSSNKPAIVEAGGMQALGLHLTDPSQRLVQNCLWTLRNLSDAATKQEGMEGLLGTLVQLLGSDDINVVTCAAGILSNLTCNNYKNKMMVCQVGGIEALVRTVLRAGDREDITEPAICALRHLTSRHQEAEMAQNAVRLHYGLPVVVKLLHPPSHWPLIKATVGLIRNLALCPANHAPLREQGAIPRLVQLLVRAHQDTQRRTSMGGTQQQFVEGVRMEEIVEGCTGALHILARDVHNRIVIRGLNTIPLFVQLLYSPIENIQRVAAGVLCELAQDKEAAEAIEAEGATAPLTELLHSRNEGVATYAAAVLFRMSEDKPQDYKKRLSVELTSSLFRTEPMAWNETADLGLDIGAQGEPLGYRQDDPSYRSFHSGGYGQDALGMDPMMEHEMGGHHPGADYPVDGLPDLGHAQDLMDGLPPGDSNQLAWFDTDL


Target: T1, B-cat-Halo
Assay: cell-based or functional assay

| Binder | NanoBRET Abs IC50 [µM] |
| --- | --- |
| Ms-[αAllylPro]D[tBuAla][B5(33)]DDAAFN[PyrS2][Phe(2-Cl)][Bta][dT]-NH2 (staple 1-4, 4-11 (inferred); not fully specified; printed as MeSO2-PL3-Asp-Npg-B5-Asp-Asp-Ala-Ala-Phe-Asn-PyrS2-2C1F-BztA-dThr-NH2) [I-1258] | > 20 |
| Ac-[αAllylPro]D[tBuAla][B5(5)]DD[Lys(iPr)]AFT[PyrS2″][Phe(2-Cl)][Bta]T-NH2 (staple 1-4; staple 4-11 (inferred); not fully specified; printed as Ac-PL3-Asp-Npg-B5-Asp-Asp-iPrLys-Ala-Phe-Thr-PyrS2-2C1F-BztA-Thr-NH2) [I-1273] | > 20 |
| Ac-[αAllylPro]D[tBuAla][B5(5)]DD[Lys(iPr)]AFL[PyrS2″][Phe(2-Cl)][Bta]Q-NH2 (staple 1-4; staple 4-11 (inferred); not fully specified; printed as Ac-PL3-Asp-Npg-B5-Asp-Asp-iPrLys-Ala-Phe-Leu-PyrS2-2C1F-BztA-Gln-NH2) [I-1275] | 27.8 |
| Ac-[αAllylPro]D[tBuAla][B5(33)]DTAAFT[PyrS2]F[Bta]S-NH2 (staple 1-4, 4-11 (inferred); not fully specified; printed as Ac-PL3-Asp-Npg-B5-Asp-Thr-Ala-Ala-Phe-Thr-PyrS2-Phe-BztA-Ser-NH2) [I-1263] | 20 |
| {Propanoyl(3-OMe)}-[αAllylPro]D[tBuAla][B5(33)]DDAAFN[PyrS2][Phe(2-Cl)][Bta][dT]-NH2 (staple 1-4, 4-11 (inferred); not fully specified; printed as MeOPr-PL3-Asp-Npg-B5-Asp-Asp-Ala-Ala-Phe-Asn-PyrS2-2C1F-BztA-dThr-NH2) [I-1259] | 18.1 |
| Ac-[αAllylPro]D[tBuAla][B5(5)]DD[Lys(iPr)]AFT[PyrS2″][Phe(2-Cl)][Bta]L-NH2 (staple 1-4; staple 4-11 (inferred); not fully specified; printed as Ac-PL3-Asp-Npg-B5-Asp-Asp-iPrLys-Ala-Phe-Thr-PyrS2-2C1F-BztA-Leu-NH2) [I-1274] | > 20 |

Target: T2, B-cat-Halo (beta-catenin HaloTag fusion …)
Assay: cell-based or functional assay

| Binder | NanoBRET Abs IC50 [µM] |
| --- | --- |
| Ac-[αAllylPro]D[tBuAla][B5(4)]D[Phe(3-COOH)]QAFL[PyrS2″][Phe(2-CF3)][2Nal]A-NH2 (staple 1-4, 4-11) [I-2461] | 25.4 |
| Ac-[αAllylPro]D[tBuAla][B5(4)]D[Phe(3-COOH)]AAFL[PyrS2″][Phe(2-CF3)][2Nal]Q-NH2 (staple 1-4, 4-11) [I-2460] | 12.8 |
| Ac-[αAllylPro]N[Cha][B5(4)]DT[Lys(iPr)]AFL[PyrS2″]F[Bta]K-NH2 (staple 1-4, 4-11) [I-2450] | > 20 |
| Ac-[αAllylPro]N[Cha][B5(5)]DQ[Lys(iPr)]AFL[PyrS2″][3Thi][Bta]Q-NH2 (staple 1-4, 4-11; not fully specified; printed as Ac-PL3-Asn-Cha-B5-Asp-Gln-iPrLys-Ala-Phe-Leu-PyrS2-3Thi-BztA-Gln-NH2) [I-2446] | > 20 |
| Ac-[αAllylPro]D[tBuAla][B5(4)]D[Phe(3-COOH)]AAFL[PyrS2″][Phe(2-CF3)][RbMeBztA]Q-NH2 (staple 1-4, 4-11) [I-2458] | 5.9 |
| Ac-[αAllylPro]D[tBuAla][B5(4)]D[Phe(3-COOH)]QAFL[PyrS2″][Phe(2-CF3)][RbMeBztA]A-NH2 (staple 1-4, 4-11) [I-2459] | 15.1 |
